The results in this text go back to US20180155451A1 (published 2018).

The target of test [1] is T1, FcγRIIa R (human FcγRIIa, allotype R, Arg at position 131), extracellular domain with C-terminal His tag (human, UniProt P12318 34-217).
T1 construct: extracellular domain; expressed in FreeStyle293 cells; analyte in Biacore; also called 2aR; FcgRIIa R
T1 sequence (looked up): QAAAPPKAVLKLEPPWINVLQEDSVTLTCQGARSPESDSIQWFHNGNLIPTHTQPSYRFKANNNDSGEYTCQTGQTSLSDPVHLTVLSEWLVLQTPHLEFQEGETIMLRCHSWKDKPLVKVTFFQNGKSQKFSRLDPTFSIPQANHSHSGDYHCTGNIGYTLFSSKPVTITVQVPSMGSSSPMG
The test can be described thus: SPR (Biacore), relative binding vs GpH7-B3/GpL16-k0. The method, then:
Analysis of interaction between objective antibody and the FcγR was carried out using Biacore T100 (GE Healthcare). HBS-EP+ (GE Healthcare) was used as the running buffer, and the measurement temperature was set to 25° C. Chips produced by immobilizing the antigen peptide by the amine coupling method to a Series S Sencor Chip CM5 (GE Healthcare), or alternatively, chips produced by allowing preliminarily biotinylated antigen peptides to interact with and immobilize onto a Series S Sensor Chip SA (certified) (GE Healthcare) were used. Antibodies of interest were captured onto an antigen peptide-immobilized chip, and allowed to interact to each FcγR diluted with running buffer. To regenerate and repeatedly use the chip, the antibodies captured on the chip were washed off by reacting 10 mM glycine-HCl, pH 1.5.
The FcγR-binding activity of each antibody was assessed primarily using as an indicator the FcγR-binding activity and dissociation constant for FcγR.

Test [2] concerns the target FcγRIIa H (human FcγRIIa, allotype with His at position 131), extracellular domain with C-terminal His tag (human, UniProt P12318 34-217). As to the kind of experiment: SPR (Biacore), antibody captured on antigen peptide chip, FcγR as analyte; relative to HeCon Ab GpH7-A5/GpH7-B3/GpL16-k0 = 100.

B1: GpH7-B3 variant S337_02A/GpL16-k0 (antibody, human IgG1, kappa)
heavy: not shown
light: DIVMTQSPLSLPVTPGEPASISCQASESLVHSNRNTYLHWYLQKPGQSPQLLIYKVSNRFSGVPDRFSGSGSGTDFTLKISRVEAEDVGVYYCSQNTHVPPTFGQGTKVEIERTVAAPSVFIFPPSDEQLKSGTASVVCLLNNFYPREAKVQWKVDNALQSGNSQESVTEQDSKDSTYSLSSTLTLSKADYEKHKVYACEVTHQGLSSPVTKSFNRGEC
notes: homodimerized antibody, mutation in both H chains; also called Ho Ab
As for B1, the Ho/Con_2aR in test [1] is 102 relative, control = 100.

B2: GpH7-A5/GpH7-B3 variant S267_09D/GpL16-k0 (antibody, human IgG1, kappa)
heavy 1: not shown
heavy 2: not shown
light: B1 light
notes: heterodimerized, mutation in one H chain only; also called He Ab
The molecule B2 had a He/Con_2aH in test [2] of 105 control = 100.

B3: GpH7-A5/GpH7-B3 variant S239_08L/GpL16-k0 (antibody, human IgG1, kappa)
heavy 1: not shown
heavy 2: not shown
light: B1 light
notes: as for B2
B3 had a He/Con_2aH in test [2] of 105 control = 100.

B4: GpH7-A5/GpH7-B3 variant S267_10E/GpL16-k0 (antibody, human IgG1, kappa)
heavy 1: not shown
heavy 2: not shown
light: B1 light
notes: as for B2
In turn, B4 came in with a He/Con_2aH in test [2] of 102 control = 100.

B5: GpH7-A5/GpH7-B3 variant S337_07I/GpL16-k0 (antibody, human IgG1, kappa)
heavy 1: not shown
heavy 2: not shown
light: B1 light
notes: as for B2
On to B5, for which, in test [2], the He/Con_2aH stood at 101 control = 100.

B6: GpH7-A5/GpH7-B3 variant S239_10E/GpL16-k0 (antibody, human IgG1, kappa)
heavy 1: not shown
heavy 2: not shown
light: B1 light
notes: as for B2
B6: the He/Con_2aH in test [2] was 112 control = 100.

B7: GpH7-B3 variant S337_20W/GpL16-k0 (antibody, human IgG1, kappa)
heavy: not shown
light: B1 light
notes: as for B1
As for B7, the Ho/Con_2aR in test [1] was 105 relative, control = 100.

B8: GpH7-B3 variant P331_07I/GpL16-k0 (antibody, human IgG1, kappa)
heavy: not shown
light: B1 light
notes: as for B1
Regarding B8, the Ho/Con_2aR in test [1] was 67 relative, control = 100.

B9: GpH7-B3 variant S337_07I/GpL16-k0 (antibody, human IgG1, kappa)
heavy: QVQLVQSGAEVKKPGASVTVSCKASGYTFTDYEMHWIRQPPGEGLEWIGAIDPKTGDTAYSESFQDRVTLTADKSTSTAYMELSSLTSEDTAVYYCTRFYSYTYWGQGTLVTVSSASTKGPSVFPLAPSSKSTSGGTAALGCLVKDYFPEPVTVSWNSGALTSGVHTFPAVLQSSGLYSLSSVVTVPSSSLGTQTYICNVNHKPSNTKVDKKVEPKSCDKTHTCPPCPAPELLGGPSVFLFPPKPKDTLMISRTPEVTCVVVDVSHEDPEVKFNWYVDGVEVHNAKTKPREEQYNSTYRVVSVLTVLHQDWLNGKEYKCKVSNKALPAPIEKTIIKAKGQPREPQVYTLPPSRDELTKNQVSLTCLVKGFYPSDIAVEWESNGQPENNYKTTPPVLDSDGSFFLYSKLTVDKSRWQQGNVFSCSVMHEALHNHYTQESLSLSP
light: B1 light
notes: as for B1
Turning to B9, the Ho/Con_2aR in test [1] is 103 relative, control = 100.

B10: GpH7-B3 variant P331_08L/GpL16-k0 (antibody, human IgG1, kappa)
heavy: not shown
light: B1 light
notes: as for B1
In the case of B10, the Ho/Con_2aR in test [1] was 74.4 relative, control = 100.

B11: GpH7-B3 variant S298_06M/GpL16-k0 (antibody, human IgG1, kappa)
heavy: not shown
light: B1 light
notes: as for B1
Take B11: in test [1], the Ho/Con_2aR is 102 relative, control = 100.

B12: GpH7-B3 variant S337_16H/GpL16-k0 (antibody, human IgG1, kappa)
heavy: not shown
light: B1 light
notes: as for B1
With B12, the Ho/Con_2aR in test [1] was 107 relative, control = 100.

B13: GpH7-B3 variant T335_01G/GpL16-k0 (antibody, human IgG1, kappa)
heavy: not shown
light: B1 light
notes: as for B1
For B13, the Ho/Con_2aR in test [1] was 97.7 relative, control = 100.

B14: GpH7-B3 variant P331_14T/GpL16-k0 (antibody, human IgG1, kappa)
heavy: not shown
light: B1 light
notes: as for B1
B14: the Ho/Con_2aR in test [1] was 80.8 relative, control = 100.

B15: GpH7-B3 variant S267_06M/GpL16-k0 (antibody, human IgG1, kappa)
heavy: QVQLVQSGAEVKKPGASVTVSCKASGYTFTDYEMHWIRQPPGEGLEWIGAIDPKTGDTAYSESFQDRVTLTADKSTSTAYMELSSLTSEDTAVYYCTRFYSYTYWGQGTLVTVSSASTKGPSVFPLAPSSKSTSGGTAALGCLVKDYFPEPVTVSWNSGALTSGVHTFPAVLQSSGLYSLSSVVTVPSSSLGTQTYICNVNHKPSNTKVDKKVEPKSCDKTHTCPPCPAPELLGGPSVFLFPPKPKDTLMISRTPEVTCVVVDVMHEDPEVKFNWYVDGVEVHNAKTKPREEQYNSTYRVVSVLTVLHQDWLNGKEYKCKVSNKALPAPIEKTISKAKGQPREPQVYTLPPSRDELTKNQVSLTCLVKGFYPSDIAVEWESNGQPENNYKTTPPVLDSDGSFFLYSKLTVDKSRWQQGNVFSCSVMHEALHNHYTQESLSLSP
light: B1 light
notes: as for B1
Consider B15, for which the Ho/Con_2aR in test [1] was 102 relative, control = 100.

B16: GpH7-B3 variant P331_13S/GpL16-k0 (antibody, human IgG1, kappa)
heavy: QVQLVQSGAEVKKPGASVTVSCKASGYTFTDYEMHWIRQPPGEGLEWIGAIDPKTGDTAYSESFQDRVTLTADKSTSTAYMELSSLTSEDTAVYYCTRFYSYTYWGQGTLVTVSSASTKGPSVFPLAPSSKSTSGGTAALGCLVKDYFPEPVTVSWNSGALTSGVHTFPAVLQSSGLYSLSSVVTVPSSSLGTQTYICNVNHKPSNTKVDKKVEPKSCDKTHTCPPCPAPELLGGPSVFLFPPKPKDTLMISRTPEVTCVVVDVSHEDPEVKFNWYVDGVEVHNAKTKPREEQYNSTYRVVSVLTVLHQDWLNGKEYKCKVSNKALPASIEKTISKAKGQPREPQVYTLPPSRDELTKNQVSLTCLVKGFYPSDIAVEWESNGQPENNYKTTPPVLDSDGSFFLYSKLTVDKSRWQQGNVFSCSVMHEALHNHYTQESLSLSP
light: B1 light
notes: as for B1
On to B16, for which, in test [1], the Ho/Con_2aR is 87.8 relative, control = 100.

B17: GpH7-B3 variant S337_12R/GpL16-k0 (antibody, human IgG1, kappa)
heavy: not shown
light: B1 light
notes: as for B1
Turning to B17, the Ho/Con_2aR in test [1] is 100 relative, control = 100.

B18: GpH7-B3 variant P331_18N/GpL16-k0 (antibody, human IgG1, kappa)
heavy: not shown
light: B1 light
notes: as for B1
As to B18, in test [1], the Ho/Con_2aR was 76.9 relative, control = 100.

B19: GpH7-B3 variant P331_09D/GpL16-k0 (antibody, human IgG1, kappa)
heavy: not shown
light: B1 light
notes: as for B1
Regarding B19, the Ho/Con_2aR in test [1] was 88.8 relative, control = 100.

B20: GpH7-B3 variant S337_04F/GpL16-k0 (antibody, human IgG1, kappa)
heavy: not shown
light: B1 light
notes: as for B1
For the molecule B20, the Ho/Con_2aR in test [1] is 98.3 relative, control = 100.

B21: GpH7-B3 variant S337_09D/GpL16-k0 (antibody, human IgG1, kappa)
heavy: not shown
light: B1 light
notes: as for B1
With B21, the Ho/Con_2aR in test [1] was 114 relative, control = 100.

B22: GpH7-B3 variant S239_14T/GpL16-k0 (antibody, human IgG1, kappa)
heavy: not shown
light: B1 light
notes: as for B1
B22: the Ho/Con_2aR in test [1] is 92.3 relative, control = 100.

B23: GpH7-B3 variant S337_15Y/GpL16-k0 (antibody, human IgG1, kappa)
heavy: not shown
light: B1 light
notes: as for B1
Take B23: the Ho/Con_2aR in test [1] is 100 relative, control = 100.

B24: GpH7-B3 variant P331_10E/GpL16-k0 (antibody, human IgG1, kappa)
heavy: not shown
light: B1 light
notes: as for B1
As to B24, the Ho/Con_2aR in test [1] was 94.6 relative, control = 100.

B25: GpH7-B3 variant S337_11K/GpL16-k0 (antibody, human IgG1, kappa)
heavy: not shown
light: B1 light
notes: as for B1
For B25, the Ho/Con_2aR in test [1] is 94.6 relative, control = 100.

B26: GpH7-B3 variant Q295_06M/GpL16-k0 (antibody, human IgG1, kappa)
heavy: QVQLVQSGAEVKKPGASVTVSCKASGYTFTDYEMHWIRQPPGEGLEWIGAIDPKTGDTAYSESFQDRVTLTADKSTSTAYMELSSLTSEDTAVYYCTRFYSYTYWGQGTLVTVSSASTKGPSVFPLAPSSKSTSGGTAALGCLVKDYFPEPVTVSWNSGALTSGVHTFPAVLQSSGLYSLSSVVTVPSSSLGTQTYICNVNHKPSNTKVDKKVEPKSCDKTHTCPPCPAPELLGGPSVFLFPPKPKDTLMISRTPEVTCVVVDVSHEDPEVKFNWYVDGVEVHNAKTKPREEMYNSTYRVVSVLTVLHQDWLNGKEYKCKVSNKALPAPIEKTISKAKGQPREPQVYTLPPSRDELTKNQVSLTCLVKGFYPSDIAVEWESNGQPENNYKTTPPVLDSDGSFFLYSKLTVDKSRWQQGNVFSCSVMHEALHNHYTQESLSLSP
light: B1 light
notes: as for B1
With B26, the Ho/Con_2aR in test [1] is 93.9 relative, control = 100.

B27: GpH7-B3 variant P238_10E/GpL16-k0 (antibody, human IgG1, kappa)
heavy: not shown
light: B1 light
notes: as for B1
Turning to B27, in test [1], the Ho/Con_2aR was 21.4 relative, control = 100.

B28: GpH7-B3 variant P238_19Q/GpL16-k0 (antibody, human IgG1, kappa)
heavy: not shown
light: B1 light
notes: as for B1
Consider B28, for which, in test [1], the Ho/Con_2aR is 19.4 relative, control = 100.

B29: GpH7-B3 variant S337_08L/GpL16-k0 (antibody, human IgG1, kappa)
heavy: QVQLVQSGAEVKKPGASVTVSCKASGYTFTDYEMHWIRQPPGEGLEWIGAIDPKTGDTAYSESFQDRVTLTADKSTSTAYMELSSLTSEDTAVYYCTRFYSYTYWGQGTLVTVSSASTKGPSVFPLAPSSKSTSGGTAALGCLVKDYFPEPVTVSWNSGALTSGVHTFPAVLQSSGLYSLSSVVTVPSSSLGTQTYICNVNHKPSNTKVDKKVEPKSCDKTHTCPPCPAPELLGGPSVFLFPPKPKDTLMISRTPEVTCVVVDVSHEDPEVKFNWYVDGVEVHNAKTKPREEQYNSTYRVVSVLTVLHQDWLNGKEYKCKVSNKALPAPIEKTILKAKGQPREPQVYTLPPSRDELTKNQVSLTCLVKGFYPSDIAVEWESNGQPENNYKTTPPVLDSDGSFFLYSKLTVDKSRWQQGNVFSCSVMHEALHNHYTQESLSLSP
light: B1 light
notes: as for B1
Regarding B29, in test [1], the Ho/Con_2aR is 99.4 relative, control = 100.

B30: GpH7-B3 variant S267_19Q/GpL16-k0 (antibody, human IgG1, kappa)
heavy: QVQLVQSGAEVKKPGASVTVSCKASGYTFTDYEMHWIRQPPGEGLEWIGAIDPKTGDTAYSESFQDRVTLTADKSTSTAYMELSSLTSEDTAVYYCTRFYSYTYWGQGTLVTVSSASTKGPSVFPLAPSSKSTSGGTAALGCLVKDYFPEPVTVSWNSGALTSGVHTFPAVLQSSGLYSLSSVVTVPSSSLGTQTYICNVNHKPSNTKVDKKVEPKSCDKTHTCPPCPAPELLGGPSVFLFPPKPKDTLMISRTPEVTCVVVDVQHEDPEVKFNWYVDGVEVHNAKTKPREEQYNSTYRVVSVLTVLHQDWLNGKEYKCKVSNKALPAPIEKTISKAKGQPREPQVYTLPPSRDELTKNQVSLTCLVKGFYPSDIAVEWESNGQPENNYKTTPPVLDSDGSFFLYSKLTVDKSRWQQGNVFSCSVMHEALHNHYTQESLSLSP
light: B1 light
notes: as for B1
For B30, the Ho/Con_2aR in test [1] was 110 relative, control = 100.

B31: GpH7-B3 variant P238_15Y/GpL16-k0 (antibody, human IgG1, kappa)
heavy: not shown
light: B1 light
notes: as for B1
B31: in test [1], the Ho/Con_2aR was 95.9 relative, control = 100.

B32: GpH7-B3 variant P238_20W/GpL16-k0 (antibody, human IgG1, kappa)
heavy: not shown
light: B1 light
notes: as for B1
On to B32, for which, in test [1], the Ho/Con_2aR was 25.7 relative, control = 100.

B33: GpH7-B3 variant S267_09D/GpL16-k0 (antibody, human IgG1, kappa)
heavy: not shown
light: B1 light
notes: as for B1
Consider B33, for which the Ho/Con_2aR in test [1] is 167 relative, control = 100.

B34: GpH7-B3 variant S337_06M/GpL16-k0 (antibody, human IgG1, kappa)
heavy: not shown
light: B1 light
notes: as for B1
For the molecule B34, the Ho/Con_2aR in test [1] is 101 relative, control = 100.

B35: GpH7-B3 variant Q295_10E/GpL16-k0 (antibody, human IgG1, kappa)
heavy: not shown
light: B1 light
notes: as for B1
On to B35, for which, in test [1], the Ho/Con_2aR was 99.2 relative, control = 100.

B36: GpH7-B3 variant P331_06M/GpL16-k0 (antibody, human IgG1, kappa)
heavy: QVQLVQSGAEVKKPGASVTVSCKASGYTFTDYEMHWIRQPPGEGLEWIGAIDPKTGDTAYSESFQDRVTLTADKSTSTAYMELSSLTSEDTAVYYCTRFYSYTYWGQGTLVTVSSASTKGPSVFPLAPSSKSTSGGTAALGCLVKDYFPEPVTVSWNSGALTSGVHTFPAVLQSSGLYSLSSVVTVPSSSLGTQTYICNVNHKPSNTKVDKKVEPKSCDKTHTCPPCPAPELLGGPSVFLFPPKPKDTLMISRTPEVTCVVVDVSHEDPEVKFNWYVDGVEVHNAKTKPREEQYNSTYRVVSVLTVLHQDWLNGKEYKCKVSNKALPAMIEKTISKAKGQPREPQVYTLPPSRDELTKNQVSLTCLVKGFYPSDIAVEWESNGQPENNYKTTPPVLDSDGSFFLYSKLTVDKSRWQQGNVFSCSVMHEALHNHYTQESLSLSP
light: B1 light
notes: as for B1
With B36, the Ho/Con_2aR in test [1] was 79.8 relative, control = 100.

B37: GpH7-B3 variant S337_03V/GpL16-k0 (antibody, human IgG1, kappa)
heavy: not shown
light: B1 light
notes: as for B1
For the molecule B37, the Ho/Con_2aR in test [1] was 102 relative, control = 100.

B38: GpH7-B3 variant P271_10E/GpL16-k0 (antibody, human IgG1, kappa)
heavy: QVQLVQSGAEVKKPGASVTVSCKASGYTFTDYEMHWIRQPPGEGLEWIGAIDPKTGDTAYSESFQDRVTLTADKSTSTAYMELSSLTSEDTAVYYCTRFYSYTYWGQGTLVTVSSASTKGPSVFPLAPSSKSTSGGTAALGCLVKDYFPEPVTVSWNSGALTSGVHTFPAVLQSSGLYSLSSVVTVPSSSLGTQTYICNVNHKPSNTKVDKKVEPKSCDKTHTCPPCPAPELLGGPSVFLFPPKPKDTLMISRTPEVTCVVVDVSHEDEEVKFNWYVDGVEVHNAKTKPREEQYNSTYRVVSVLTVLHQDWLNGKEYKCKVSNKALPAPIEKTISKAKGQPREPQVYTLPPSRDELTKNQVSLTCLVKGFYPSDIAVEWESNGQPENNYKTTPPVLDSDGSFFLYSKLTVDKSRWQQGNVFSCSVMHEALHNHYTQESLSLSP
light: B1 light
notes: as for B1
Regarding B38, the Ho/Con_2aR in test [1] is 88.8 relative, control = 100.

B39: GpH7-B3 variant S337_19Q/GpL16-k0 (antibody, human IgG1, kappa)
heavy: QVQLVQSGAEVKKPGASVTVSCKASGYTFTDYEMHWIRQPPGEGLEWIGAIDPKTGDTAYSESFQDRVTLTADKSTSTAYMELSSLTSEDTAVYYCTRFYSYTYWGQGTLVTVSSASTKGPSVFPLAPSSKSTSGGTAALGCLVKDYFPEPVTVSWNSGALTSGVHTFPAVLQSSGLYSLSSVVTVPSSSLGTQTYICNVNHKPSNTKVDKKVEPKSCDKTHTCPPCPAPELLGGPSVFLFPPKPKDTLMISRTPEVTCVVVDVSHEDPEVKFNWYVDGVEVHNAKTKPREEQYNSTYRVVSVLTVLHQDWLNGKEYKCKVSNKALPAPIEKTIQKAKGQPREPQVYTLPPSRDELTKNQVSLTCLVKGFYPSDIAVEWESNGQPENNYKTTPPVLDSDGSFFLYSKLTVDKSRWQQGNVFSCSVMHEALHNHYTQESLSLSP
light: B1 light
notes: as for B1
Regarding B39, the Ho/Con_2aR in test [1] is 102 relative, control = 100.

B40: GpH7-B3 variant S324_06M/GpL16-k0 (antibody, human IgG1, kappa)
heavy: not shown
light: B1 light
notes: as for B1
Take B40: the Ho/Con_2aR in test [1] is 118 relative, control = 100.

B41: GpH7-B3 variant S298_08L/GpL16-k0 (antibody, human IgG1, kappa)
heavy: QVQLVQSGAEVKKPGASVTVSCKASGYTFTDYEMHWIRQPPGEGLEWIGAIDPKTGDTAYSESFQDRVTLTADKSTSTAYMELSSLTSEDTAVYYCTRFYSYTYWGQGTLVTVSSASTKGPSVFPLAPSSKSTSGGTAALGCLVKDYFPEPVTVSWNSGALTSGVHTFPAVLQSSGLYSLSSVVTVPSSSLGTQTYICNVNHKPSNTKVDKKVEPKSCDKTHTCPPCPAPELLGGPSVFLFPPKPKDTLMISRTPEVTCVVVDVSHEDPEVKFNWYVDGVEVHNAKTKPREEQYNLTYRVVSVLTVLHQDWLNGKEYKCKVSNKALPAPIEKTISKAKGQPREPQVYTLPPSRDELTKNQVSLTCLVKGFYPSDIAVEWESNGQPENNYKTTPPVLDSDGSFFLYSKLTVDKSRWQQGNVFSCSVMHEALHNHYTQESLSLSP
light: B1 light
notes: as for B1
On to B41, for which, in test [1], the Ho/Con_2aR was 101 relative, control = 100.

B42: GpH7-B3 variant S239_07I/GpL16-k0 (antibody, human IgG1, kappa)
heavy: not shown
light: B1 light
notes: as for B1
As for B42, the Ho/Con_2aR in test [1] is 85.3 relative, control = 100.

B43: GpH7-B3 variant S337_18N/GpL16-k0 (antibody, human IgG1, kappa)
heavy: not shown
light: B1 light
notes: as for B1
With B43, the Ho/Con_2aR in test [1] was 103 relative, control = 100.

B44: GpH7-B3 variant P271_09D/GpL16-k0 (antibody, human IgG1, kappa)
heavy: not shown
light: B1 light
notes: as for B1
As to B44, the Ho/Con_2aR in test [1] was 92.4 relative, control = 100.

B45: GpH7-B3 variant P238_16H/GpL16-k0 (antibody, human IgG1, kappa)
heavy: not shown
light: B1 light
notes: as for B1
Regarding B45, in test [1], the Ho/Con_2aR is 25.5 relative, control = 100.

B46: GpH7-B3 variant P331_03V/GpL16-k0 (antibody, human IgG1, kappa)
heavy: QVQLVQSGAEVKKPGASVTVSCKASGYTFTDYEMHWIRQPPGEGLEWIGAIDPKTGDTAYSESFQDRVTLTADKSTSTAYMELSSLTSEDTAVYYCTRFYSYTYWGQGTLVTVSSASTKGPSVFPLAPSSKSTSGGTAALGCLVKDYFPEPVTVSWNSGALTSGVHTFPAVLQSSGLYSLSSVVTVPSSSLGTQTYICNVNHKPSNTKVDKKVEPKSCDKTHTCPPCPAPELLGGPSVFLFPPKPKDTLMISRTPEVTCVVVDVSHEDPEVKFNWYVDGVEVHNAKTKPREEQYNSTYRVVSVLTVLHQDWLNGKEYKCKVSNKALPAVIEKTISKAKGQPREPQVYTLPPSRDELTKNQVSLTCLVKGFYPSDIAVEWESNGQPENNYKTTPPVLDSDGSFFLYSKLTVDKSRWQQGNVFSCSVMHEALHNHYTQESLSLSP
light: B1 light
notes: as for B1
As to B46, the Ho/Con_2aR in test [1] is 89.1 relative, control = 100.

B47: GpH7-B3 variant S239_06M/GpL16-k0 (antibody, human IgG1, kappa)
heavy: not shown
light: B1 light
notes: as for B1
As for B47, the Ho/Con_2aR in test [1] is 82.9 relative, control = 100.

B48: GpH7-B3 variant S337_10E/GpL16-k0 (antibody, human IgG1, kappa)
heavy: not shown
light: B1 light
notes: as for B1
On to B48, for which the Ho/Con_2aR in test [1] was 110 relative, control = 100.

B49: GpH7-B3 variant S324_04F/GpL16-k0 (antibody, human IgG1, kappa)
heavy: not shown
light: B1 light
notes: as for B1
Turning to B49, in test [1], the Ho/Con_2aR was 101 relative, control = 100.
